Laboratory results taken from publication PMC3077374.

Assays:
Test in all cases: SPR; Biacore 3000; hIgG, hIgM or hIgA amine-coupled to CM-5 chips (10 mM sodium acetate, pH 5.0, 4.5 or 4.0); LD5 or SpA as analyte in serial 1:2 dilutions from 1.25 and 0.8 uM; flow 40 ul/min; NaCl/HEPES with 0.005% surfactant P20; regeneration 100 mM alanine-HCl pH 2.5
human IgA (human) = molecular target: human IgA (human)
human IgM (human) = molecular target: human IgM (human)
human IgG (human) = molecular target: human IgG (human)

“staphylococcal protein A (SpA) (from UniProt P02976 37-485) (natural protein)” was tested, and the Kd (human IgA (human)) was 7.03 nM, the koff (human IgA (human)) was 0.00292 s⁻¹ and the kon (human IgA (human)) was 416000 M⁻¹ s⁻¹. The Kd (human IgM (human)) was 7.15 nM, the koff (human IgM (human)) was 0.000817 s⁻¹ and the kon (human IgM (human)) was 115000 M⁻¹ s⁻¹. For the same substance, the Ka (human IgG (human)) was 3.45e+09 M⁻¹, the Kd (human IgG (human)) was 0.29 nM and the koff (human IgG (human)) was 4.4e-05 s⁻¹. For the same substance, the kon (human IgG (human)) was 154000 M⁻¹ s⁻¹.
